# Experimental data as given in patent US20250304677A1 (VIB VZW, published 2025).
# B1: VHH 3MFR60 (family 10) (VHH)
# VHH: QVQLQESGGGLVQAGGSLRVSCAASGIIFSMNGMGWFRQAPGKQRELVASITSGGSTKYADSVKGRFTISRDNAKNTVYLQMNSLKPEDTAVYYCNIQFGSRWSTYWGQGTQVTVSS
# B2: VHH 2HFO19 (family 1) (VHH)
# VHH: QVQLQESGGGLVQPGGSLRVSCAASGFPFSTVYMSWVRQAPGKGLEWVSGINNDGGVIDYADSVKGRFTISRDNAKNTLYLQLNSLKPEDTALYFCARGRSFVATLSSSLRGQGTQVTVSS
# notes: also called Nb19
# B3: VHH 2HFO42 (family 3) (VHH)
# VHH: QVQLQESGGGLVQAGGSLRLSCAASGSGFSGMIMGWYRQVPGKQRELVATVTSHGTTNYADSVKGRFTISRDNAKNTVLLQMNSLKPEDTAVYYCNAHFPGIYWGKGTQVTVSS
# notes: also called 2HF042; Nb42
# What was measured:
# [1] = target: T1, mouse folate receptor alpha (mFRα), recombinant protein (mouse, UniProt P35846 25-232); experiment: ELISA on coated mouse FOLR1, without and with 100 µM folic acid (series not separable)
# T1 construct: Bought recombinant proteins (e.g. biotinylated, Acro Biosystems FO1-M82E9); also called mFOLR1; Ms FOLR1
# T1 sequence (P35846 25-232 limits assumed): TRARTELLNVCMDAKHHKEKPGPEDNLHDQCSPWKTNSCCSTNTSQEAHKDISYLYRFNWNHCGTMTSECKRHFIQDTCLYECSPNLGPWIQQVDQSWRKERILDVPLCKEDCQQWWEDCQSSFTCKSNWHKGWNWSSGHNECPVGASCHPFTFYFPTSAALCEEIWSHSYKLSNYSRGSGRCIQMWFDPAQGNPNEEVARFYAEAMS
# Protocol: (§1) Data were normalized and technical replicates were plotted as mean±SD. Data were fitted by non-linear regression and the half-maximal effective concentration ^{∘}EC50) was calculated using GraphPad Prism 9 software. ^{∘}FIG. 1C and FIG. 1D) Binding affinity determination of anti-FOLR1 VHHs for native FOLR1. Mouse ^{∘}FIG. 1C) or human FOLR1 FIG. 1D) was overexpressed on HEK293T cells and binding of the anti-FOLR1 VHHs was assessed using flow cytometry. The mean fluorescence intensity ^{∘}MFI) of the phycoerythrin signal was plotted for each VHH concentration. Data were fitted by non-linear regression using GraphPad Prism 9 software. ^{∘}FIG. 1E) Determination of the competition of representative family members with folic acid ^{∘}FA) using ELISA. Mouse FOLR1 was coated on the plate and was pre-incubated with or without 100 μM FA before adding the VHHs. Data were fitted by non-linear regression using GraphPad Prism 9 software.
# (§2) As interference with the endogenous transport of folates via FRα could have serious implications on brain homeostasis, competition between representative family members and FA for mouse FRα binding was assessed via ELISA ^{∘}FIG. 1E).
# [2] = target: T2, human folate receptor alpha (hFRα), recombinant protein (human, UniProt P15328 25-233); experiment: ELISA on recombinant human FOLR1, cMyc tag detection, normalised binding, non-linear fit
# T2 construct: Bought recombinant proteins (His-tagged, or biotinylated via Avi-tag, e.g. AcroBiosystems FO1-H82E2, F01-H52H1); also called hFOLR1; huFOLR1
# T2 sequence (P15328 25-233 limits assumed): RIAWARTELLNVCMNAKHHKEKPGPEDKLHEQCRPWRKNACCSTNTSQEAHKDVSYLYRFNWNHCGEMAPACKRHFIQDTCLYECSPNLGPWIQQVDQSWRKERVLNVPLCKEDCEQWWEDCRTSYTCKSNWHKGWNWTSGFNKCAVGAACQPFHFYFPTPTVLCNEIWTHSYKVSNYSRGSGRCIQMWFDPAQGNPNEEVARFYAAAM
# Protocol: as §1
# (§3) In a first step, binding affinity and cross-reactivity of the purified VHHs to human and mouse FRα was assessed by ELISA, using detection of the cMyc tag ^{∘}FIG. 1A-B). […] 2HFO19 ^{∘}family 1) was the best binder of all tested VHHs to both mouse and human FRα with an EC₅₀ of 0.1 nM and 0.4 nM respectively ^{∘}FIG. 1A-B).
# [3] = target: T1, mouse folate receptor alpha (mFRα), …; experiment: ELISA on recombinant mouse FOLR1, cMyc tag detection, normalised binding, non-linear fit
# Protocol: as §1, §3
# [4] = target: T2, human folate receptor alpha (hFRα), …; experiment: ELISA, periplasmic extract
# Description: (§4) From the lymphocytes of each llama a separate VHH library was constructed to select and screen for the presence of antigen-specific VHHs. To this end, total RNA from peripheral blood lymphocytes was used as template for first strand cDNA synthesis with an oligo ^{∘}dT) primer. Using this cDNA, the VHH encoding sequences were amplified by PCR, digested with PstI and NotI, cloned into the PstI and NotI sites of the phagemid vector pMECS and transformed into E. coli to generate VHH libraries. To enrich these libraries for FRα ^{∘}or FOLR1, as used interchangeably herein)-specific VHHs, a combinatorial panning approach on recombinant human and mouse FOLR1 was used followed by random selection and screening of clones by ELISA for the presence of antigen-specific VHHs in their periplasmic extracts ^{∘}PEs). In order to gauge the cross-reactivity for human and mouse FOLR1, each clone was tested on both antigens.
# (§5) After panning of core76/77 on human and mouse folate receptor alpha ^{∘}FRα), […] were randomly selected from the second and third rounds and analyzed by ELISA on both human and mouse FRα for the presence of FRα-specific VHHs in their periplasmic extracts ^{∘}PE). This led to the identification of 98 hits. For these 98 hits, the off-rate ^{∘}koff) in the PE was determined by biolayer interferometry ^{∘}BLI) on both mouse and human FRα that was directly immobilized onto AR2G biosensors. The off-rates were calculated using a 1:1 binding model. […] Abbreviations: SE: standard error.
# [5] = target: T1, mouse folate receptor alpha (mFRα), …; experiment: ELISA, periplasmic extract
# Description: as §4, §5
# [6] = target: T3, mouse folate receptor alpha expressed on transfected HEK293T cells (mouse, UniProt P35846 25-232); experiment: flow cytometry on HEK293T cells overexpressing mouse FOLR1, His tag detection, PE MFI, non-linear fit
# T3 construct: also called cell-expressed mouse FRα
# T3 sequence (P35846 25-232 limits assumed): as the sequence (P35846 25-232 limits assumed) above
# Protocol: as §1
# [7] = target: T2, human folate receptor alpha (hFRα), …; experiment: ELISA on recombinant FRα, cMyc tag detection
# Protocol: as §1, §3
# [8] = target: T1, mouse folate receptor alpha (mFRα), …; experiment: ELISA on recombinant FRα, cMyc tag detection
# Protocol: as §1, §3
# [9] = target: T1, mouse folate receptor alpha (mFRα), …; experiment: ELISA on coated mouse FOLR1, without folic acid
# Protocol: as §1, §2
# [10] = target: T1, mouse folate receptor alpha (mFRα), …; experiment: ELISA on coated mouse FOLR1 pre-incubated with 100 µM folic acid
# Protocol: as §1, §2
Binder,EC50 (read off the curve) [1],EC50 [2],EC50 [3],PE-ELISA (ratio to uncoated well) [4],PE-ELISA (ratio to uncoated well) [5],EC50 [6],EC50 [7],EC50 [8],EC50 (read off the curve) [9],EC50 (read off the curve) [10]
B1,~3 nM,11.1 nM,0.3 nM,4.8,4.9,1.5 nM,,,,
B2,,,,13.8,14.2,1.4 nM,0.4 nM,0.1 nM,~1 nM,~1 nM
B3,,10.4 nM,0.2 nM,11.7,12.2,1.2 nM,,,~2 nM,2 to 3 nM
